Measured values as given in publication PMC9530208, “MutS functions as a clamp loader by positioning MutL on the DNA during mismatch repair”.

B1: 59-bp mismatched DNA (dsDNA)
DNA 1: CGCGGGTTTTCGCTATTTATGAAAATTTTCCGGTTTAAGGCGTTTCCGTTCTTCTTCGT
DNA 2: ACGAAGAAGAACGGAAACGCCTTAAACTGGAAAATTTTCATAAATAGCGAAAACCCGCG

Columns and labels:
MutL (Escherichia coli) = MutL (Escherichia coli) (UniProt P23367); assay: smTIRF; details: ATP, no MutS, 10 mM NaCl, 10 nM MutL; single mismatch; smTIRF: 20 mM Tris-HCl pH 7.5, 0.1 mM DTT, 0.2 mg/mL acetylated BSA, 0.0025% P-20, 5 mM MgCl2, 100 mM NaCl (Buffer C), 1 mM ATP or AMP-PNP; NaCl varied …; scale: fraction of DNA molecules with MutL sliding clamp
[1] = target: MutL(R-E) R162E;R266E;R316E (Escherichia coli) (UniProt P23367); assay: smTIRF; details: 30 mM NaCl, 2 nM protein; single mismatch; smTIRF: 20 mM Tris-HCl pH 7.5, 0.1 mM DTT, 0.2 mg/mL acetylated BSA, 0.0025% P-20, 5 mM MgCl2, 100 mM NaCl (Buffer C), 1 mM ATP or AMP-PNP; NaCl varied …; scale: fold fewer binding events than wild-type MutL
[2] = tested on: MutL(R266E) (Escherichia coli); assay: smTIRF; details: 30 mM NaCl, 2 nM protein; single mismatch; smTIRF: 20 mM Tris-HCl pH 7.5, 0.1 mM DTT, 0.2 mg/mL acetylated BSA, 0.0025% P-20, 5 mM MgCl2, 100 mM NaCl (Buffer C), 1 mM ATP or AMP-PNP; NaCl varied …; scale: fold fewer binding events than wild-type MutL
[3] = target: MutS;MutL (Escherichia coli;Escherichia coli) (UniProt P23367); assay: smTIRF; details: ATP, 10 nM MutL, single mismatch, smTIRF: 20 mM Tris-HCl pH 7.5, 0.1 mM DTT, 0.2 mg/mL acetylated BSA, 0.0025% P-20, 5 mM MgCl2, 100 mM NaCl (Buffer C), 1 mM ATP or AMP-PNP, NaCl varied …, scale: fraction of DNA molecules with MutL sliding clamp
MutS-bio;MutL = MutS-bio;MutL (Escherichia coli;Escherichia coli, UniProt P23909;P23367 1-853;1-615, |); assay: smTIRF; ATP; immobilized MutS-bio, MutL co-localization lifetime 29 +/- 2 s; smTIRF: 20 mM Tris-HCl pH 7.5, 0.1 mM DTT, 0.2 mg/mL acetylated BSA, 0.0025% P-20, 5 mM MgCl2, 100 mM NaCl (Buffer C), 1 mM ATP or AMP-PNP; NaCl varied 10-100 mM; Mg2+ omitted for MutL-only binding per reviewer comment; temperature not given; details: protein: recombinant;recombinant; chain copies: 2;2; label: 5'-biotin on both strands; blunt, single G/T mismatch at position 32 of strand 1

Row | Molecule | binding signal (MutL (Escherichia coli)) | binding signal [1] | binding signal [2] | binding signal ([3]; loaded at 10 mM NaCl) | binding signal ([3]; loaded at 100 mM NaCl) | binding result (MutS-bio;MutL)
1 | 18.4-kb mismatched DNA | 0.25 | 30 | 3 | 0.567 | 0.073 | 
2 | B1 |  |  |  |  |  | binds
